Test results taken from US20120077731A1 (Ablynx, published 2012).
Where “and” joins values, the source holds several entries; their conditions need not be identical. Identical values can stand only once.

T1: Human membrane IL-6R on cells (human, UniProt P08887 20-468)
T1 sequence (looked up): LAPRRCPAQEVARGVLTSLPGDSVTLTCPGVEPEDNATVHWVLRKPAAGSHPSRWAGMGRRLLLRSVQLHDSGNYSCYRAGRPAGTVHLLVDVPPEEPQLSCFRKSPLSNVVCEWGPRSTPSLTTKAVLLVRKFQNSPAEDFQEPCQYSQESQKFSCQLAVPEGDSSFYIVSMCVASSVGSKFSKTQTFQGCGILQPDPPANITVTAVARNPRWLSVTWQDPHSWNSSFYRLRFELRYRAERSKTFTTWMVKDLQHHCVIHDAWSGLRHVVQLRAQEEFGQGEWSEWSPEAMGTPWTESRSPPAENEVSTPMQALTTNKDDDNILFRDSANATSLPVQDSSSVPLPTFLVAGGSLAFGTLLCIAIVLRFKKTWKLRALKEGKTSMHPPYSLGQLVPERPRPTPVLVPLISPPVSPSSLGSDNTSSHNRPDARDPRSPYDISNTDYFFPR

T2: Human soluble IL-6R (human, UniProt P08887 20-358)
T2 construct: Soluble recombinant form; biotinylated in some assays; also called hIL-6R; human IL-6R
T2 sequence (looked up): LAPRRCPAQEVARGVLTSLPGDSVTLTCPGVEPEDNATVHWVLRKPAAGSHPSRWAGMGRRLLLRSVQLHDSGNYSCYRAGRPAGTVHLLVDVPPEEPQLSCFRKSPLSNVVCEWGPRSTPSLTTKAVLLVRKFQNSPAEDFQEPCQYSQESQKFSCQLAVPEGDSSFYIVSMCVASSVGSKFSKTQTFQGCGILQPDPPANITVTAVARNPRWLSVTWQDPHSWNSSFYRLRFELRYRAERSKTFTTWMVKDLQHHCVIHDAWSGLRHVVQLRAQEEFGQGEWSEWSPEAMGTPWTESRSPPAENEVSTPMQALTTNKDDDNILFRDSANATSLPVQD

T3: Mouse IL-6R (mouse, UniProt P22272 20-364, limits assumed)
T3 construct: also called mouse sIL-6R
T3 sequence (looked up): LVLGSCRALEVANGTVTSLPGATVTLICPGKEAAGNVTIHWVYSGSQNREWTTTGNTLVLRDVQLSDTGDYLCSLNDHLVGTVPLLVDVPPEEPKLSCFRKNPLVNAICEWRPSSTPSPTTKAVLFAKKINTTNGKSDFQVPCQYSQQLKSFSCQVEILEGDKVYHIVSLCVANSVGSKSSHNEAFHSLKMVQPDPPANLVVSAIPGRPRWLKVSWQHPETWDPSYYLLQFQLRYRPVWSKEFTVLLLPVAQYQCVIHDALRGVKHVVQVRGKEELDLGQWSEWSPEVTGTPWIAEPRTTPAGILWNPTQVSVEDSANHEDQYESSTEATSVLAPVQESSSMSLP


Tests used:
[1] = molecular target: T1, Human membrane IL-6R on cells; experiment: cell-based or functional assay
Human soluble IL-6R [2] = molecular target: T2, Human soluble IL-6R; experiment: Biacore off-rate, periplasmic extract
Human soluble IL-6R [3] = molecular target: T2, Human soluble IL-6R; experiment: SPR Biacore 3000, IL-6R amine-coupled to CM5
Procedure: (§1) Nanobodies were injected at 5 different concentrations between 1 and 50 nM. Flow rate was 45 μl/min in all experiments. Association and dissociation phase were 3 and 10 min, respectively. The chip was regenerated using Glycine/HCl pH 1.5.

Human soluble IL-6R [4] = molecular target: T2, Human soluble IL-6R; experiment: inhibition of the IL-6/IL-6R interaction, summary table C-13
Procedure: (§2) Finally streptavidin donor beads were added and after 1 hour incubator the plate was read on the Envision microplate reader.

Human soluble IL-6R [5] = molecular target: T2, Human soluble IL-6R; experiment: competition for IL-6R, competitor reference Fab, summary table C-13
Human soluble IL-6R [6] = molecular target: T2, Human soluble IL-6R; experiment: summary table C-13 of Nanobody characteristics, Kd on IL-6R
Procedure: as §1

Human soluble IL-6R [7] = molecular target: T2, Human soluble IL-6R; experiment: Alphascreen, 100 nM Nanobody, 0.4 nM bio-IL-6R; competitor: reference Fab
Mouse IL-6R = molecular target: T3, Mouse IL-6R; experiment: ELISA: plate coated with 1 µg/ml mouse IL-6R, 500 nM Nanobody, anti-myc + anti-mouse-HRP
Procedure: Detection was performed with anti-myc and anti-mouse-HRP as first and second antibody respectively.

[8] = molecular target: T1, Human membrane IL-6R on cells; experiment: cell-based or functional assay; remark: listed apart in the source
Human soluble IL-6R [9] = molecular target: T2, Human soluble IL-6R; experiment: Alphascreen, inhibition of bio-IL-6 binding to IL-6R
Procedure: as §2

[10] = molecular target: T1, Human membrane IL-6R on cells; experiment: cell-based or functional assay; remark: listed apart in the source
Human soluble IL-6R [11] = molecular target: T2, Human soluble IL-6R; experiment: Biacore off-rate, periplasmic extracts

Binder	IC50 (nM), TF1 cell proliferation [1]	koff (Human soluble IL-6R [2])	Kd (Human soluble IL-6R [3])	koff (Human soluble IL-6R [3])	kon (Human soluble IL-6R [3])	IC50 (Human soluble IL-6R [4])	Ref Fab competition (%) (Human soluble IL-6R [5])	Kd (Human soluble IL-6R [6])	Residual reference-Fab binding to IL-6R (%) (Human soluble IL-6R [7])	binding result (Mouse IL-6R)	IC50 (nM) XG-1 [8]	IC50 (Human soluble IL-6R [9])	IC50 (nM), XG-1 cell proliferation [10]	koff (Human soluble IL-6R [11])	IC50 (nM) + HSA, XG-1 cell proliferation [10]
IL6R10 (VHH, also called PMP35C10; not shown: C-terminal c-myc and (His)6 tags) VHH: EVQLVESGGGLVQAGGSLRLSCAASGRTFSSYDMGWYRQAPGKEREFVAVIHWSSGSTYYADPVKGRFTISRDNAKNTVYLQMNSLKPEDTAIYYCNAFLPGPEGFHDYWGQGTQVTVSS	9.9 nM	0.000509 s⁻¹	1.3 nM	0.000526 s⁻¹ and 0.000509 s⁻¹	414000 M⁻¹ s⁻¹	0.6 nM	102%	1.3 nM	102%	no binding (tested: 500 nM)	2.5 nM	0.596 nM	2.5 nM		
IL6R07 (VHH, also called PMP33A3; not shown: C-terminal c-myc and (His)6 tags) VHH: EVQLVESGGGLVQPGGSLRLSCAASGFTLDYGAIGWFRQAPGKEREGVSCISSSTGSTYYADSVKGRFTISRDNGKNTVYLQMNSLKPEDTAVYYCAADKMWSPCLVAANEEALFEYDYWGQGTQVTVSS	375 nM	0.000242 s⁻¹		0.000242 s⁻¹		1.44 nM	80%		80%	no binding (tested: 500 nM)	50.5 nM	1.44 nM	50.5 nM		
IL6R08 (VHH, also called PMP34A12; not shown: C-terminal c-myc and (His)6 tags) VHH: EVQLVESGGGLVQPGGSLRLSCVASGFSLDYYVIGWFRQAPGKEREGVSCISSSDGSTYYADSVKGRFTISRDNAKNTVYLQMNSLKPEDTAVYYCAADLLRTPEFCVDSAPYDYWGQGTQVTVSS	24.3 nM		10.2 nM	0.00197 s⁻¹	194000 M⁻¹ s⁻¹	1.18 nM	99%	10.2 nM	99%	no binding (tested: 500 nM)	36.6 nM	1.18 nM	36.6 nM		
IL6R11 (VHH, also called PMP35E11; not shown: C-terminal c-myc and (His)6 tags) VHH: EVQLVESGGGLVQAGGSLRLSCAASGFTFDDYAIGWFRQAPGKEHEGVSCISSSDGSTYYADSVKGRFTISSDNAKNTVYLQMNSLKPEDTAVYYCAAERDVPARSLCGSYYWYDYRGQGTQVTVSS	9.9 nM	0.000417 s⁻¹	0.9 nM and 1.9 nM	0.00034 s⁻¹ and 0.000396 s⁻¹ and 0.000417 s⁻¹	391000 M⁻¹ s⁻¹ and 215000 M⁻¹ s⁻¹	0.16 nM	40%	0.9 nM	40%	no binding (tested: 500 nM)	5.4 nM	0.158 nM	5.4 nM		
IL6R09 (VHH, also called PMP34G9; not shown: C-terminal c-myc and (His)6 tags) VHH: EVQLVESGGGLVQAGGSLRLSCAASGRTSSSYDMTWYRQVPGKEREFVAVISWSGGSTYYADSVKGRFTISRDNAKNTVYLQMNSLKPEDTAIYYCNAYTGGGDDYWGQGTQVTVSS	8.7 nM	0.00139 s⁻¹	2 nM and 1.2 nM	0.00129 s⁻¹ and 0.0013 s⁻¹ and 0.00139 s⁻¹	641000 M⁻¹ s⁻¹ and 1.11e+06 M⁻¹ s⁻¹	0.24 nM	62%	2 nM	62%	no binding (tested: 500 nM)	2.7 nM	0.238 nM	2.7 nM		3 nM
IL6R05 (VHH, also called PMP32E10; not shown: C-terminal c-myc and (His)6 tags) VHH: EVQLVESGGGLVQPGGSLRLSCAASGFTFGSYDMSWVRQAPGKGPEWVSAINSGGGSTYYADSVKGRFTISRDNAKNTLYLQMNSLKPEDTAVYYCATDWRYSDYDLPLPPPGDYWGQGTQVTVSS	38 nM	0.00127 s⁻¹	9.8 nM	0.00141 s⁻¹ and 0.00127 s⁻¹	144000 M⁻¹ s⁻¹	0.63 nM	64%	9.8 nM	64%	no binding (tested: 500 nM)	7.3 nM	0.626 nM	7.3 nM		

Other lines, results leading:

IC50 (nM), TF1 cell proliferation [1]	koff (Human soluble IL-6R [2])	Kd (Human soluble IL-6R [3])	koff (Human soluble IL-6R [3])	kon (Human soluble IL-6R [3])	IC50 (Human soluble IL-6R [4])	Ref Fab competition (%) (Human soluble IL-6R [5])	Kd (Human soluble IL-6R [6])	Residual reference-Fab binding to IL-6R (%) (Human soluble IL-6R [7])	binding result (Mouse IL-6R)	IC50 (nM) XG-1 [8]	IC50 (Human soluble IL-6R [9])	IC50 (nM), XG-1 cell proliferation [10]	koff (Human soluble IL-6R [11])	IC50 (nM) + HSA, XG-1 cell proliferation [10]	Binder
6.8 nM	0.000896 s⁻¹	1.7 nM	0.00116 s⁻¹ and 0.000896 s⁻¹	678000 M⁻¹ s⁻¹	0.52 nM	103%	1.7 nM	103%	no binding (tested: 500 nM)	2.8 nM	0.517 nM	2.8 nM			IL6R12 (VHH, also called PMP35F4; not shown: C-terminal c-myc and (His)6 tags) VHH: EVQLVESGGGLVQAGGSLRLSCAASGRTFSSYDMGWYRQAPGKEREFVAIITWNSSTYYADSVKGRFTISRDNAKNTVYLQMNSLKPEDTAIYYCNAQYGLGYAEDYWGQGTQVTVSS
													0.0021 s⁻¹		IL6R85 (VHH, IL6R13 variant, tested as periplasmic extract) VHH: EVQLVESGGGLVQPGGSLRLSCAASGFTFDDYGMSWVRQAPGRGLEWVSAISWNGNNTYYTESMKGRFTISRDNAKNTLYLQMNSLRPEDTAVYYCVKGSTAIVGVPPTYPDEYDYWGQGTLVTVSS
													0.00019 s⁻¹		IL6R89 (VHH, IL6R13 variant, tested as periplasmic extract) VHH: EVQLVESGGGLVQPGGSLRLSCAASGFTFDDYGMSWVRQAPGRGTEWVSAISWNGNNTYYTESMKGRFTISRDNAKNTLYLQMNSLRPEDTAVYYCVKGSTAIVGVPPTYPDEYDYWGQGTLVTVSS
													0.00011 s⁻¹		IL6R87 (VHH, IL6R13 variant, tested as periplasmic extract) VHH: EVQLVESGGGLVQPGGSLRLSCAASGFTFDDYGMSWVRQAPGKATEWVSAISWNGNNTYYTESMKGRFTISRDNAKNTLYLQMNSLRPEDTAVYYCVKGSTAIVGVPPTYPDEYDYWGQGTLVTVSS
													0.0017 s⁻¹		IL6R86 (VHH, IL6R13 variant, tested as periplasmic extract) VHH: EVQLVESGGGLVQPGGSLRLSCAASGFTFDDYGMSWVRQAPGRALEWVSAISWNGNNTYYTESMKGRFTISRDNAKNTLYLQMNSLRPEDTAVYYCVKGSTAIVGVPPTYPDEYDYWGQGTLVTVSS
													0.0019 s⁻¹		IL6R90 (VHH, IL6R13 variant, tested as periplasmic extract) VHH: EVQLVESGGGLVQPGGSLRLSCAASGFTFDDYGMSWVRQAPGKALEWVSAISWNGNNTYYTESMKGRFTISRDNAKNTLYLQMNSLRPEDTAVYYCVKGSTAIVGVPPTYPDEYDYWGQGTLVTVSS
1.5 nM	0.000114 s⁻¹	0.3 nM	0.0001 s⁻¹ and 0.000114 s⁻¹	402000 M⁻¹ s⁻¹	0.22 nM	96%	0.3 nM	96%	no binding (tested: 500 nM)	0.6 nM	0.222 nM	0.6 nM		0.8 nM	IL6R14 (VHH, also called PMP40H5; not shown: C-terminal c-myc and (His)6 tags) VHH: EVQLVESGGGLVQPGGSLRLSCAASGFSLDYYAIGWFRQAPGKEREGVSCMDSSSGTTSTYYSDSVKGRFTISRDDAKNTVYLQMNSLKPEDTAVYYCAADGHLNWGQRYVPCSQISWRGWNDYWGQGTQVTVSS
